{
  "source": "paper PMC10686230",
  "about": "(The Journal of Cell Biology, 2023)",
  "molecular_target": "the molecule itself",
  "experiment": "SEC + SEC-MALS",
  "data": [
    {"protein": "SMGL-1 (purified, GST tag cleaved) (natural protein, C. elegans, UniProt P90841 1-1615, looked up) MAHMRGTNHEKEKHDDENSKILLKERYNLLKWLTNVEMRSPNVLIPVQIANYVESLPFCKLAVSPKCDRVAVMSYARQLDIYQISGEILTHESSVQVLEETSPEYCILQFSSSSTLILSSRSTPHIDVFDSMGAYLYDIPLELHEGIFDVNSAICGMQTFENYSSSSNDKFIEILYVLQYSGVFSAFKIGRLSKYVKMWTVQLDIGQTGSFTVLPQYNLLLVASHHKESTSLVPPAGLCSFRMMDMDPFVEPIRISTPDGGFFSRLPFSTSFMSYLPRMSLSFDSQLLVSVSTSGSLYLFEIPSLHVKFSFNFISGPRPVDACFVDSDEIAVIYDNGYLLRCSLEDLEEKMYSVKMRSKKEIDEEPELKDFYSEQTVMVSPAQREIFLLTADGDNSFLRKAAHKRVQLAGQLWFYTVWNSLKKLVGMAMGEPAEQLHFETHIAKFEFSLIHSPTRTLQELFDRTLKEHDYTRARELAETYDTIDIYVVLKSEWIDKCSKNKVTVEDVEDILKRIGDSEWAAEQCASADSDDFEVHKALIDLGLSLGESSVTWQIRLLHHWRMLEVCRIKGDVDIYMMARNGSCLDAALTFAHNGDIDSLTRIIESNMAVMKHHQKRILSAIPTCTSPTKYEILMPKREDGETEEQWELEEQNDGIYERLDKILMEHPDAESLIRSINVGNIPNEETFDFTSWVRETLPKIDFECGMTDICVNLLQIAYERGYEDLIHDLATWQPYAQYIRICSSVSESITSFQDSTMKSFTDRFSRLLDSELIKNAKDIVSLIEWKIKMTSSDSEESIEDRLRDAVTTLMKATNERTTKVLVAFRNELPSVVDDHVILEVLLNMTSTGADLMKSLGDLPVDKYVNVTSSLGSLMSRGVKMTFKSIFESMKEPDGARRVLIKLSRSGNCSNFDDWMSLRDDIYDMANGIYEDLVTTEEALEIFAGEILEEERIGSHPELMELVLTLNPKEDNSNPRKLSIAKSADVLLSKSDELMNEATQRGDPLLGRSRFFAVAARPISPKKSKEKLDWLDAIDAALELGCTMMPIAIKFCEHDSLLRDVVGLGSNYKQGKKILSFAKQLNIDTPIATALSYCALAALNANDAVYLSKYIGEVMKAKGVPVVHKLCMQIMNSSHVPTDMEDVYSCAVLNSSEENLLDTVDAIASSEKRLSESRRCREIRLDDIPVSEAVVGDPMYTPMRLYNARKEISGDVKQKITFYGKRNLWETNYGKREGFDVMKRLYAHESSTVALCFSLFEPAENVETGELSWTKNDKLRRYERGLRFFQDRVPLSDLVTAPASAIINEANKGDASITAIDRIEDYGCDRRRFIGDAEYRTETIIGLAGTENEQIFADALELAEKYEIDEWKLHMASLEYLLDPSYNVPIIDVKQIMKSRKHLSKLRTKLDEFHSRLRSMVLPSLETNEQFLSYISLFADAEPEKKLGDTIKKIISKMKNVEAIRLWTDAKYLSSTLNKIPDGNLRAIISSVLQFPKIGVKACEMSAEFLLEGDDTRPPSNPFTLFLLMRSNIEDFLELVANKKSRDDEIAYLDQAVILLENTPKVPPLLLDAIKMRSEKMHRATVTPEPATPSNGSSTGLSSYFSNTEDNSGMMKRRKN", "values": [
      {"measurement": "stoichiometry N", "value": 4}
    ]}
  ]
}
